{"source": "paper PMC7682656", "molecular_target": "His6-tagged NBDY (human)", "assay": "SPR + ITC", "data": [{"substance": "purified EDC4 WD40 domain (residues 72-528) (from UniProt Q6P2E9 72-528) (domain or fragment)", "values": [{"measurement": "Kd", "value": 1000, "unit": "nM"}]}]}
